# “Also recorded” adds a separate entry of the source. Read-outs that look alike come from different tables or passages of the source.
# Legend:
# Format in all cases: cell-based
# [1] = system: cultured rat hippocampal neurons; assay: Optical recording of action potentials in cultured neurons
# Experimental: Arch was tested as a voltage indicator in cultured rat hippocampal neurons, using viral delivery (Methods 10-11). […] Individual spikes were accompanied by clearly identifiable increases of whole-field fluorescence (FIG. 11B). Preferentially weighting pixels whose intensity co-varied with the whole-field fluorescence led to an about 74% improvement in SNR (FIG. 11C). This training procedure made no use of the electrical recording. Training the pixel-weighting algorithm on the electrical recording led to a further 5% increase in SNR. (FIG. 11D).
# (11) Neuronal cell culture. E18 rat hippocampi were purchased from BrainBits and mechanically dissociated in the presence of 1 mg/mL papain (Worthington) before plating at 5,000 to 30,000 cells per dish on poly-L-lysine and Matrigel-coated (BD Biosciences) glass-bottom dishes. […] Cells were incubated in N+ medium (100 mL Neurobasal medium, 2 mL B27 supplement, 0.5 mM glutamine, 25 micromolar glutamate, penicillin-streptomycin) for 3 hours. An additional 300 microliter virus medium was added to the cells and incubated overnight, then brought to a final volume of 2 mL N+ medium. After two days, cells were fed with 1.5 mL N+ medium. Cells were fed with 1 mL N+ medium without glutamate at 4 DIV, and fed 1 mL every 3-4 days after. Cells were allowed to grow until 10-14 DIV. […]
# Whole-cell current clamp recordings were obtained from mature neurons under the same conditions used for HEK cells recordings. Series resistance and pipette capacitance were corrected. Only neurons having resting potentials between −50 and −70 mV were used in the analysis.
# (12) Spike sorting. A spike identification algorithm was developed that could be applied either to electrically recorded V(t) or to optically determined VFL(t). The input trace was convolved with a reference spike. Sections of the convolved waveform that crossed a user-defined threshold were identified as putative spikes. Multiple spikes that fell within 10 ms (a consequence of noise-induced glitches near threshold) were clustered and identified as one.
# HEK cells [2] = assay: Photocurrents under voltage clamp; settings: for Photocurrent: HEK cells clamped at V=0, 640 nm, 1800 W/cm^2
# Experimental: Measurements of photocurrents were performed on HEK cells held in voltage clamp at 0 mV while being exposed to brief (200 ms) pulses of illumination at 640 nm at an intensity of 1800 W/cm^2.
# HEK cells [3] = assay: Frequency response and noise of membrane potential estimated from fluorescence; settings: for noise / accuracy of voltage estimated from fluorescence: HEK cells, after calibration with voltage ramp −150 to +150 mV; for Noise in V̂FL: frequencies f≧0.1 Hz in HEK cells
# Experimental: For the data of FIG. 9, a chirped sine wave with an amplitude of about 50 mV and frequency from about 1 Hz to about 1 kHz was applied to the cell. Membrane potential VFL was determined from fluorescence and the Fourier transform of VFL was calculated. The uptick at about 1 kHz is an artifact of electronic compensation circuitry. […] The noise figures reported here are specific to our imaging system and serve primarily as an indicator of the possible sensitivity of Arch.
# (8) Frequency-dependent response functions of Arch WT and D95N. Test waveforms consisted of a concatenated series of sine waves, each of duration 2 s, amplitude 100 mV, zero mean, and frequencies uniformly spaced on a logarithmic scale between 1 Hz and 1 kHz (31 frequencies total). The waveforms were discretized at 10 kHz and applied to the cell, while fluorescence movies were acquired at a frame rate of 2 kHz.
# The model parameters for extracting VFL(t) were calculated from the fluorescence response to low frequency voltages. These parameters were then used to calculate an estimated voltage at all frequencies.
# The applied voltage was downsampled to 2 kHz to mimic the response of a voltage indicator with instantaneous response. For each applied frequency, the Fourier transform of VFL(t) was calculated and divided by the Fourier transform of the downsampled V(t). The amplitude of this ratio determined the response sensitivity. It was important in some cases to properly compensate pipette resistance and cell membrane capacitance to obtain accurate response spectra.
# The power spectrum of VFL(t) under constant V=0 was also measured to enable calculations of signal-to-noise ratio for any applied V(t).
# In these examples, a measure of the performance of a voltage indicator which reported the information content of the fluorescence signal was used, including an algorithm to infer membrane potential from a series of fluorescence images. The accuracy with which the estimated membrane potential matched the true membrane potential was used (as reported by patch clamp recording) as a measure of indicator performance.
# The estimated membrane potential, VFL(t), was determined from the fluorescence in two steps. First a model was trained relating membrane potential to fluorescence at each pixel. A highly simplified model that the fluorescence signal, Si(t), at pixel i and time t, is given by: […]
Molecule,"effect of illumination on membrane potential / spiking in neurons ([1]; I=1800 W/cm^2, λ=640 nm)",photocurrent / proton pumping (words) (HEK cells [2]),Photocurrent (HEK cells [2]),photocurrent / proton pumping (words) (HEK cells [2]; listed as Arch 3 D95N),photocurrent / proton pumping (words) (HEK cells [2]; listed as D95N),noise / accuracy of voltage estimated from fluorescence (HEK cells [3]),Noise in V̂FL (HEK cells [3]),optical signal-to-noise ratio of single electrically triggered action potentials [1],"increase in fluorescence after addition of supplemental retinal ([1]; 10 μM retinal, over 30 minutes, neuron depolarized with CCCP)","signal-to-noise ratio in the fluorescence (spike amplitude:baseline noise) ([1]; 2 kHz frame rate, single trial)","light-induced outward photocurrent in neurons ([1]; I=1800 W/cm^2, total internal reflection mode)","shift of resting potential by photocurrent ([1]; current-clamp, I=1800 W/cm^2)",false-positive rate of spike identification ([1]; n=269 spikes),"spikes correctly identified by spike-finding algorithm ([1]; n=269 spikes, versus simultaneously recorded membrane potential)",r.m.s. deviation between fluorescence and voltage ([1]; pixel weights from correlation to electrophysiology data),r.m.s. deviation of fluorescence from electrophysiology data ([1]; pixel weights from correlation to whole-field intensity),"r.m.s. deviation of fluorescence from electrophysiology data ([1]; whole-field fluorescence, single trial, 500 frames/s)","outward photocurrent induced by imaging laser (HEK cells [2]; HEK cells, 640 nm)","fluorescence oscillation amplitude retained relative to low-frequency amplitude (HEK cells [3]; sinusoidal membrane potential, f≈1 kHz)","shot-noise limited noise floor in V̂FL (HEK cells [3]; voltage clamp at constant V=0 mV, frequencies above about 10 Hz)"
"Arch D95N: Archaerhodopsin 3 with aspartic acid 95 mutated to asparagine; non-pumping voltage indicator (protein, UniProt P96787 7-258, looked up, variant D95N) Archaerhodopsin-3: QAGYDLLGDGRPETLWLGIGTLLMLIGTFYFLVRGWGVTDKDAREYYAVTILVPGIASAAYLSMFFGIGLTEVTVGGEMLDIYYARYANWLFTTPLLLLDLALLAKVDRVTIGTLVGVDALMIVTGLIGALSHTAIARYSWWLFSTICMIVVLYFLATSLRSAAKERGPEVASTFNTLTALVLVLWTAYPILWIIGTEGAGVVGLGIETLLFMVLDVTAKVGFGFILLRSRAILGDTEAPEPSAGADVSAAD",did not perturb membrane potential; also recorded: no effect of illumination on spiking or resting potential,lacked endogenous proton pumping,no,lacks photoinduced proton pumping,eliminated the photocurrent,260 μV/(Hz)^1/2,260 μV/Hz^1/2,–,–,–,–,–,–,–,–,–,–,–,–,–
"Archaerhodopsin 3 (protein, Halorubrum sodomense, Microbial rhodopsin from Halorubrum sodomense, light-driven proton pump used as fluorescent voltage indicator; experiments used an Arch-eGFP fusion) MDPIALQAGYDLLGDGRPETLWLGIGTLLMLIGTFYFLVRGWGVTDKDAREYYAVTILVPGIASAAYLSMFFGIGLTEVTVGGEMLDIYYARYADWLFTTPLLLLDLALLAKVDRVTIGTLVGVDALMIVTGLIGALSHTAIARYSWWLFSTICMIVVLYFLATSLRSAAKERGPEVASTFNTLTALVLVLWTAYPILWIIGTEGAGVVGLGIETLLFMVLDVTAKVGFGFILLRSRAILGDTEAPEPSAGADVSAAD",–,–,yes,–,–,about 625 μV/(Hz)^1/2,625 μV/Hz^1/2,greater than 10,30-60%,about 10.5,about 10 pA,up to −20 mV,0.7%,99.6%,4.0 mV,4.2 mV,7.3 mV,10-20 pA,about 55%,about 470 μV/(Hz)^1/2
